Columns and labels:
Human PD-L1 [1] = biological target: T1, Human PD-L1 (human, UniProt Q9NZQ7 19-290); assay: flow cytometry on MDA-MB-231 cells, PE-conjugated goat anti-human IgG F(ab')2 as secondary
T1 construct: Amino acids 1-18 are stated as the predicted signal peptide; also called CD274; B7H1
Procedure: (§1) Cells (3-5×10⁴ cells/well) were incubated in polystyrene 96-well round-bottom plates (Greiner bio-one, cat. no. 650101) with serial dilutions of antibodies (range 0.0001 to 10 μg/mL in 5-fold dilution steps) in 50 μL PBS/0.1% BSA/0.02% azide (FACS buffer) at 4° C. for 30 min. After washing twice in FACS buffer, cells were incubated with secondary antibody at 4° C. for 30 min. As a secondary antibody, R-Phycoerythrin (PE)-conjugated goat-anti-human IgG F(ab′)₂ (Cat. no. 109-116-098, Jackson ImmunoResearch Laboratories, Inc., West Grove, Pa.) diluted 1:500 in 50 μL FACS buffer, was used for all experiments. Next, cells were washed twice in FACS buffer, re-suspended in 20 μL FACS buffer and analyzed on an iQue screener (Intellicyt Corporation, USA). Binding curves were analyzed using non-linear regression (sigmoidal dose-response with variable slope) using GraphPad Prism V75.04 software (GraphPad Software, San Diego, Calif., USA).

Human CD137 = Human CD137 (human, UniProt Q07011 24-255); assay: cell-based or functional assay
Human CD137, sequence (Q07011 24-255): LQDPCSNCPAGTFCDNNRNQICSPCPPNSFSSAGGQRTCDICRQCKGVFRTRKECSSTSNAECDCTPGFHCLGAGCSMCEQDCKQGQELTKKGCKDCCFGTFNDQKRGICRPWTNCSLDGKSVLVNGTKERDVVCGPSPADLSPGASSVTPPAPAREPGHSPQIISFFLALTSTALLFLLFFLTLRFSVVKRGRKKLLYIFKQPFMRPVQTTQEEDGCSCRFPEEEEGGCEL

Human PD-L1 [2] = biological target: T1, Human PD-L1; assay: cell-based or functional assay
Human PD-L1 [3] = biological target: T1, Human PD-L1; assay: flow cytometry on PC-3 cells, PE-conjugated goat anti-human IgG F(ab')2 as secondary
Procedure: as §1

Human PD-L1 [4] = biological target: T1, Human PD-L1; assay: flow cytometry on SK-MES-1 cells, PE-conjugated goat anti-human IgG F(ab')2 as secondary
Procedure: as §1

T1 sequence (Q9NZQ7 19-290): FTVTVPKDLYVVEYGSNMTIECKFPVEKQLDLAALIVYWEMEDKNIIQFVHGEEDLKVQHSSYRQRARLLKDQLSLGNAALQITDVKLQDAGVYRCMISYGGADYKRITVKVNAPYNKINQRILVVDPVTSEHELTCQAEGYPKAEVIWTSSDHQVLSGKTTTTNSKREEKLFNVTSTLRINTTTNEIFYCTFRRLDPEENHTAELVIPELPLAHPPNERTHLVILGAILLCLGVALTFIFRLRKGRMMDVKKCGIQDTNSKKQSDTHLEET

Binder	binding result (Human PD-L1 [1])	EC50 value, CD8+ T-cell expansion (donor 1, 0.03 µg/ml anti-CD3) (Human CD137) [µg/mL]	EC50 value, CD8+ T-cell expansion (donor 2, 0.09 µg/ml anti-CD3) (Human CD137) [µg/mL]	EC50 (read off the curve); fold induction in the PD-1/PD-L1 inhibition bioassay, blocked partner human PD-1 (Human PD-L1 [2]) [µg/mL]	EC50 (read off the curve) (Human PD-L1 [1]) [µg/mL]	EC50 (read off the curve) (Human PD-L1 [3]) [µg/mL]	EC50 (read off the curve) (Human PD-L1 [4]) [µg/mL]
b12 (antibody, V domains shown, also called monospecific, bivalent b12 antibody; gp120 specific antibody) VH: QVQLVQSGAEVKKPGASVKVSCQASGYRFSNFVIHWVRQAPGQRFEWMGWINPYNGNKEFSAKFQDRVTFTADTSANTAYMELRSLRSADTAVYYCARVGPYSWDDSPQDNYYMDVWGKGTTVIVSS VL: EIVLTQSPGTLSLSPGERATFSCRSSHSIRSRRVAWYQHKPGQAPRLVIHGVSNRASGISDRFSGSGSGTDFTLTITRVEPEDFALYYCQVYGASSYTFGQGTKLERK	no binding (tested: 10 µg/mL)	–	–	–	–	–	–
PD-L1-547-FEALxCD137-009-HC7LC2-FEAR (bispecific antibody, human IgG1, kappa, lambda) heavy 1: EVQLLEPGGGLVQPGGSLRLSCEASGSTFSTYAMSWVRQAPGKGLEWVSGFSGSGGFTFYADSVRGRFTISRDSSKNTLFLQMSSLRAEDTAVYYCAIPARGYNYGSFQHWGQGTLVTVSSASTKGPSVFPLAPSSKSTSGGTAALGCLVKDYFPEPVTVSWNSGALTSGVHTFPAVLQSSGLYSLSSVVTVPSSSLGTQTYICNVNHKPSNTKVDKRVEPKSCDKTHTCPPCPAPEFEGGPSVFLFPPKPKDTLMISRTPEVTCVVVAVSHEDPEVKFNWYVDGVEVHNAKTKPREEQYNSTYRVVSVLTVLHQDWLNGKEYKCKVSNKALPAPIEKTISKAKGQPREPQVYTLPPSREEMTKNQVSLTCLVKGFYPSDIAVEWESNGQPENNYKTTPPVLDSDGSFLLYSKLTVDKSRWQQGNVFSCSVMHEALHNHYTQKSLSLSPGK light 1: SYVLTQPPSVSVAPGQTARITCGGNNIGSKSVHWYQQKPGQAPVLVVYDDNDRPSGLPERFSGSNSGNTATLTISRVEAGDEADYYCQVWDSSSDHVVFGGGTKLTVLGQPKAAPSVTLFPPSSEELQANKATLVCLISDFYPGAVTVAWKADSSPVKAGVETTTPSKQSNNKYAASSYLSLTPEQWKSHRSYSCQVTHEGSTVEKTVAPTECS heavy 2: EVQLVESGGGLVQPGRSLRLSCTASGFSLNDYWMSWVRQAPGKGLEWVGYIDVGGSLYYAASVKGRFTISRDDSKSIAYLQMNSLKTEDTAVYYCARGGLTYGFDLWGQGTLVTVSSASTKGPSVFPLAPSSKSTSGGTAALGCLVKDYFPEPVTVSWNSGALTSGVHTFPAVLQSSGLYSLSSVVTVPSSSLGTQTYICNVNHKPSNTKVDKRVEPKSCDKTHTCPPCPAPEFEGGPSVFLFPPKPKDTLMISRTPEVTCVVVAVSHEDPEVKFNWYVDGVEVHNAKTKPREEQYNSTYRVVSVLTVLHQDWLNGKEYKCKVSNKALPAPIEKTISKAKGQPREPQVYTLPPSREEMTKNQVSLTCLVKGFYPSDIAVEWESNGQPENNYKTTPPVLDSDGSFFLYSRLTVDKSRWQQGNVFSCSVMHEALHNHYTQKSLSLSPGK light 2: DIVMTQSPSSLSASVGDRVTITCQASEDISSYLAWYQQKPGKAPKRLIYGASDLASGVPSRFSASGSGTDYTFTISSLQPEDIATYYCHYYATISGLGVAFGGGTKVEIKRTVAAPSVFIFPPSDEQLKSGTASVVCLLNNFYPREAKVQWKVDNALQSGNSQESVTEQDSKDSTYSLSSTLTLSKADYEKHKVYACEVTHQGLSSPVTKSFNRGEC	–	0.0122	0.00689	–	–	–	–
b12-FEALxPD-L1-547-FEAR (bispecific antibody, also called monovalent PD-L1 antibody; monovalent PD-L1-control antibody) heavy 1: QVQLVQSGAEVKKPGASVKVSCQASGYRFSNFVIHWVRQAPGQRFEWMGWINPYNGNKEFSAKFQDRVTFTADTSANTAYMELRSLRSADTAVYYCARVGPYSWDDSPQDNYYMDVWGKGTTVIVSSASTKGPSVFPLAPSSKSTSGGTAALGCLVKDYFPEPVTVSWNSGALTSGVHTFPAVLQSSGLYSLSSVVTVPSSSLGTQTYICNVNHKPSNTKVDKRVEPKSCDKTHTCPPCPAPEFEGGPSVFLFPPKPKDTLMISRTPEVTCVVVAVSHEDPEVKFNWYVDGVEVHNAKTKPREEQYNSTYRVVSVLTVLHQDWLNGKEYKCKVSNKALPAPIEKTISKAKGQPREPQVYTLPPSREEMTKNQVSLTCLVKGFYPSDIAVEWESNGQPENNYKTTPPVLDSDGSFLLYSKLTVDKSRWQQGNVFSCSVMHEALHNHYTQKSLSLSPGK light 1: EIVLTQSPGTLSLSPGERATFSCRSSHSIRSRRVAWYQHKPGQAPRLVIHGVSNRASGISDRFSGSGSGTDFTLTITRVEPEDFALYYCQVYGASSYTFGQGTKLERKRTVAAPSVFIFPPSDEQLKSGTASVVCLLNNFYPREAKVQWKVDNALQSGNSQESVTEQDSKDSTYSLSSTLTLSKADYEKHKVYACEVTHQGLSSPVTKSFNRGEC heavy 2: EVQLLEPGGGLVQPGGSLRLSCEASGSTFSTYAMSWVRQAPGKGLEWVSGFSGSGGFTFYADSVRGRFTISRDSSKNTLFLQMSSLRAEDTAVYYCAIPARGYNYGSFQHWGQGTLVTVSSASTKGPSVFPLAPSSKSTSGGTAALGCLVKDYFPEPVTVSWNSGALTSGVHTFPAVLQSSGLYSLSSVVTVPSSSLGTQTYICNVNHKPSNTKVDKRVEPKSCDKTHTCPPCPAPEFEGGPSVFLFPPKPKDTLMISRTPEVTCVVVAVSHEDPEVKFNWYVDGVEVHNAKTKPREEQYNSTYRVVSVLTVLHQDWLNGKEYKCKVSNKALPAPIEKTISKAKGQPREPQVYTLPPSREEMTKNQVSLTCLVKGFYPSDIAVEWESNGQPENNYKTTPPVLDSDGSFFLYSRLTVDKSRWQQGNVFSCSVMHEALHNHYTQKSLSLSPGK light 2: SYVLTQPPSVSVAPGQTARITCGGNNIGSKSVHWYQQKPGQAPVLVVYDDNDRPSGLPERFSGSNSGNTATLTISRVEAGDEADYYCQVWDSSSDHVVFGGGTKLTVLGQPKAAPSVTLFPPSSEELQANKATLVCLISDFYPGAVTVAWKADSSPVKAGVETTTPSKQSNNKYAASSYLSLTPEQWKSHRSYSCQVTHEGSTVEKTVAPTECS	–	–	–	~0.1	~0.06	~0.05	~0.2
PD-L1-547-FEAR (antibody, human IgG1, lambda, V domains shown, Human IgG1 lambda with L234F, L235E, D265A and K409R (FEAR)) VH: EVQLLEPGGGLVQPGGSLRLSCEASGSTFSTYAMSWVRQAPGKGLEWVSGFSGSGGFTFYADSVRGRFTISRDSSKNTLFLQMSSLRAEDTAVYYCAIPARGYNYGSFQHWGQGTLVTVSS VL: SYVLTQPPSVSVAPGQTARITCGGNNIGSKSVHWYQQKPGQAPVLVVYDDNDRPSGLPERFSGSNSGNTATLTISRVEAGDEADYYCQVWDSSSDHVVFGGGTKLTVLG	–	–	–	–	~0.05	~0.04	~0.1
